# Measurements as given in paper PMC9303552 (Angewandte Chemie (International Ed. in English), 2022).
# B1: GST-CHIP (carboxyl terminus of Hsp70 interacting protein, full length) (enzyme, human, UniProt Q9UNE7 1-303, looked up)
# chain: MKGKEEKEGGARLGAGGGSPEKSPSAQELKEQGNRLFVGRKYPEAAACYGRAITRNPLVAVYYTNRALCYLKMQQHEQALADCRRALELDGQSVKAHFFLGQCQLEMESYDEAIANLQRAYSLAKEQRLNFGDDIPSALRIAKKKRWNSIEERRIHQESELHSYLSRLIAAERERELEECQRNHEGDEDDSHVRAQQACIEAKHDKYMADMDELFSQVDEKRKKRDIPDYLCGKISFELMREPCITPSGITYDRKDIEEHLQRVGHFDPVTRSPLTQEQLIPNLAMKEVIDAFISENGWVEDY
# Assays:
# [1] = molecular target: T1, Tau 2N4R isoform (full-length Tau) (human, UniProt P10636-8 1-441); assay: NMR titration
# [2] = molecular target: B1; assay: NMR titration
# [3] = molecular target: T1, Tau 2N4R isoform (full-length Tau); assay: ITC
binder,measurement,setting,value
B1,Kd,[1],14 µM
"Tau1-152 (domain or fragment, human, UniProt P10636-8 1-152, looked up) MAEPRQEFEVMEDHAGTYGLGDRKDQGGYTMHQDQEGDTDAGLKESPLQTPTEDGSEEPGSETSDAKSTPTAEDVTAPLVDEGAPGKQAAAQPHTEIPEGTTAEEAGIGDTPSLEDEAAGHVTQARMVSKSKDGTGSDDKKAKGADGKTKIA",binding result,[2],binds
"isolated TPR domain of CHIP (domain or fragment, human) EKSPSAQELKEQGNRLFVGRKYPEAAACYGRAITRNPLVAVYYTNRALCYLKMQQHEQALADCRRALELDGQSVKAHFFLGQCQLEMESYDEAIANLQRAYSLAKEQRLNFGDDIPSALRIAKKKRWNSIEERR",Kd,[3],360 µM
